Test: yeast display, Sf9 membrane polyspecificity reagent, FACS + sequencing; frameworks hold sequencing errors
Outline: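 Polyreactivity labels are assigned by the sorting gate from which each nanobody was recovered. The gates were low and high (top ~1%), set on anti-HA fluorescence for expression and streptavidin fluorescence for reagent binding. Before sorting, galactose-induced (36–48 hours) yeast display cells were stained for 1 hour at 4 °C with 10% biotinylated, detergent-solubilized Sf9 membrane reagent.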

| Sequence | polyreactivity (PSR sort gate) |
| --- | --- |
| QVQLVESGGGLVQAGGSLRLICAASGSTFGVNAMGWYRQAPGKERELVAAITQSGGSTFYADSVKGRFTISRDKAKNTVYLQMNSLKPEDTAVYYWGQGTQVTVSS | low polyreactivity |
| QVQLVESGGGLVQAGGSLRLSCAASGFTLTLRYAMGWYRQAPGKERELVAAISSGGRTKYADSVKGRFTISRDNAKNTVYLQMNSLKPEDTAVYYCAADLYDPYHVYGYNYWGQGTQVTVSS | low polyreactivity |
| QVQLVESGGGLVQAGGSLRLSCAASGNTFLAYVMGWYRQAPGKEREFVAAISRRDGRTYYADSVKGRFTISRDNAKNTVYLQMNSLKPEDTAVYYCNAQRHFWHLYAPSSFDYWGQGTQVTVSS | low polyreactivity |
| QVQLVESGGGLVQAGGSLRLSCAASGRIIAYYAMGWSRQAPGKERELVAAINWNGGSTYYADSVKGRFTISRDNAKNTVYLQMNSLKPEDTAVYYCNAGRTYTALNGDYWGQGTQVTLSS | high polyreactivity |
| QVQLVESGGGLVQAGGSLRLSCAPSGSTFLDNAMGLYRQAPGKESELVAAISRGGSTNYADSVKWLFTSSRDNAKNTVYLQMNSLKPEDTAVYYCAARVNYASRYWYYIIRGTIDYYWGQGTQVTVSS | low polyreactivity |
| QDQLVESGGGLVQAGGSLRLSCAASGITFDYYVMGWYRKAPGKEMELVAAISWSGGTTYYADSVKGRFTISRDNAKNTVSLQMNSLKPEDTAVYYCNAEHTGSFYGGYPWEMEYWGQGTQVTVSS | low polyreactivity |
| QVQLVESGGGLVQAGGSLRLSCAASGSIFDSNAMGWYRQAPGKERELVADIRGIGGSTYYADSVKGRFTISRDHAKNTVYLQMNSLKPEDTAVYYCNTSTLGGYYWGQGTQVTVSS | low polyreactivity |
| QVQLVESGGGLVQAGGSLRLSCAASGRTFRIYATGWYRQAPGKERELVAAITRGGSTYYADSVKGRFTISRDNAKNTVYLQMNSLKPEDTAVYYCNAAPYYWGYDYWGQGTQVTVSS | high polyreactivity |
| QVQLQESGGGLVQAGGSLRLSCEASGTIFKYYTMGWYRQAPGKEREFVAGINVGSTTNYADIVKGRFTISRDNAKNTVYLQMNSLKPEDTAVYYCAAYFIFLYYHDYWGLGTQVTVSS | low polyreactivity |
| HVQLVESGGGLVQAGGSLRLSCAASGRIFDWNAMGWYRPAPGKEWELVAAISSRSGGTYYADSVKGRFTISRDNAKNTVYFQMNSLKPEDTAVYYCAADYYWYGRFEYGYWGQGTQVTVSS | low polyreactivity |
| QVQLVESGGGLVQAGGSLRLSCAASGLIFYGNAMGWYREAPGKERELVAAISRRGGRTYYADSVKGRYTISRDNAKNTVYLQMNSLKPEDTAVYYCAAGVPKNGQAGYDYWGQGTQVTVSS | high polyreactivity |
| QVQLVESGGGLVQAGGSLRLSCAASGRIFDPYAMGWYRQAPGKERELVATITRSGGSTYYADSVKGRFTISRDNAKNTVYLQMNSLKPEDTAVYYCAVGDGFEYDWGQGTQVTVSS | low polyreactivity |
| QDQLVESGGGLVQAGGSLRLICAASGFTFRWYSMGWYRQAPGKERELVADISRGGSTNYADSVKGRFTISRDHAKNSVYLQMNSLTPEDTAVFYCAATQRKYGYKSYYYWGQGTQVTVSS | high polyreactivity |
| QVQLVESGGALVQAGCSLRLSCAASGRTFGRNTMGWYRQAPGKERELVAGISRSAGRTYYADSVKGRFTISRDNAKNNVYLQMNSLKAEDTAVYYCAARYQGNYRTDKYDYWGQGTQVTVSS | high polyreactivity |
| QVQLVESGGGLVQAGGSLRLSCAASGSIFYYNTMGWYRQAPGKERELVAAITSTGRTNYADSVKGRFTISRDNAKNTVYLQMNSLKPEDSAVYYCAKRRFGDGDYWGQGTQVTVSS | low polyreactivity |
| QVQLVESGGGLVQAGGSLRLSCAASGRTFGYYAMGWYRPAPGKERELVAAITSSSSTNYADSVKGRFTISRDNAKNTVYLQMNSLKPEDTAVYYCAAYGYYRSGYRALEGYWGQGTQVTVSS | high polyreactivity |
| QVQLVESGGGLVQAGGSLRLSCAASGSTFVFNAMGWYRQAPGKERELVAAISIDGSTNYADSVKGRFTISRDNANNSVYLQMNSLKPEDTAVYYCNAKRYGFFYWQGDYWGQGTQVTVSS | low polyreactivity |
| QVQLVESGGGLVQAGGSLRLSCAASGSTFAFNAMGWYRPAPGKERELVASISGSGSSTYYADSVKGRFTISRDNAKNTVYLQMNSLKPEDTAVYYCAARVGARVSPPRRHGRFNYWGQGTQVTVSS | high polyreactivity |
| QVQLVESGGGLVQAGGSLRLSCAASGSTFGGYAMGWYRQAPGKERELVAAISFDGGSTYADSVKGRFTISRDNAKNTVYLQMNSLKPEDTAVYYCAVKFWLVIQFDYCGQGTQVTVSS | low polyreactivity |
| QVQLVESGGGLVQAGGSLRLSCAASGSTFNRYALGWYRQAPGKEREFVAAISTRGGSTHYADSVKGRFTISRDNAKNTVYLQMNSLKPEDTAVYYCNARGYYSVPSNTGIRYYRFDYWGQGTQVTVSS | low polyreactivity |
| QVQLVESGGGLVQAGGSLRLSCAASGSIFVKNVMGWYRQAPGKERELVAAITRGGRTYYADSVKGRFTISRDNAKNTVYLQMNSLKPEDTAVYYCNAYRLSYTYGYWGQGTQVTVSS | high polyreactivity |
| QVQLVESGGGLFQAGGSLRLSCAASGRIFKYAMGWYRQAPGKERELVAAISSSGGRTYYADSVKGRFTISRDNAKNTVYLQMNSLKPEDTAVYYCAATSYNTQSAFYYWGQGTQVTVSS | high polyreactivity |

| Sequence | polyreactivity (PSR sort gate) |
| --- | --- |
| QVQLVESGGCLVQAGGSLRLSCAASGGIFGKYAMGWYRQAPGKESELVAAITWNGVSTYYADSVKGRFTISRDNAKNTVYLQMNSLKPEDTAVYYCAKASLPYRPDSTPDRRYDYWGQGTQVTVSS | high polyreactivity |
| QVQLVESGGGLVQAGGSLRLSCAASGSTSRYNVMGWYRQAPGKERELVAAISSRGVSTYYADSVKGRFTISRDNAKKTVYLQMNSLKPEDTAVYYCAARYGGPSHYGYWGQGTQVTVSS | high polyreactivity |
| QVQLVESGGCLVQAGGSLRLICAASGSIFDYNAMGWYRQAPGKERELVADITLSDDSTYYADSVKGRFTISRDNAKNTVYLQKNSLKPEDTAVYYCAADIKYYWYYYYWAYAYDYWGQGTQVTVSS | high polyreactivity |
| QVQLVESGGGLVQAGGSLSLSCAASGRTFIFYAMGWYRQAPGKERELVAAISSSGSGTYYADSVKGRFTISRDNAKNTVYLQMNSLKPEDTAVYYCAADVVNSRRRPKYGYWGQGTQVTVSS | low polyreactivity |
| QVQLVESGGGLVQAGGSLRLSCAAAGSIFSGYAMGWSRQAPGKERELVAAISGSGGSTFYADSVKGRFTISRDNAKKTVYLQMNSLKPEDTAVYYCAARRIAPYARYDYWGQGTQVTVSS | low polyreactivity |
| QVQLVESGGGLVQAGGSLRLSCAASGYIFDRYAMGWYRQAPGKERELVAAISGRGGSTYYADSVKGRFTISRDNAKNTVYLQKNSLKPEDTAFYYCARDVYVRNGQRARYDSWGQGTQVTVSS | high polyreactivity |
| QVQLVESGGGLVQAGGSLRLSCAASGRTFGYNAMGWYIQAPGKERELVAAINWSGASTYYADSVKGRFTISRDNAKNTVYLQMNSLKPEDTAVYYCAADYSYIYGFDYWGQGTQVTVSS | low polyreactivity |
| QVQLVESGGGLVQAGGSLRLSCAASGSIFRYYAMGWYRPAPGKERELVARISATGASTYYADSVKGRFTISRDNAKNTVYLQMNSLKPEDTAVYYCAAGGRSRWGRYSPYDYWGQGTQVTVSS | high polyreactivity |
| QVQLVESGGGLVQAGGSLRLSCAASGFTSTAYAMGWYRQAPGKERELVAVISSGSSTHYADSVKGRFTISRDNAKNTVYLQMNSLKPEDTAVYYCAARIRTRYFTGFYYWGQGTQVTVSS | high polyreactivity |
| QVQLVESGGGLVQAGGSLRLSCAASGRIFYINAMGWYRQAPGTERELVAAITEGGVSTYYADSVKGRFTSSRDNAKNTVYLQMNSLKPEDTAVYYCNTTGGPDGIVIYEYWGQGTQVTVSS | low polyreactivity |
| QVQLVESGGGLVQAGGRLRLSCAASGRTFRRYTMGWDRQAPGKERELVAANTSGGRTNYADSVKGRFTISRDNAKNTVYLQMNSLKPEDTAVYYCNAQNEIWRVTFSPYDRWGYDYWGQGTQVTVSA | low polyreactivity |
| QFQLVESGGGLVQAGVSLRLSCAASGSIILVYAMGLYIQATGKETELVPAITTRGSSTYYADSVKGRFKISRDNAKNTYYLQMNSLKPEDTEVYYCAKEFPGTQGRGVTGFSGTALGYWGQGTKVTVSS | low polyreactivity |
| QVQLVESGGGLVQSGGSLRLSCAASGYIFGYYAMGWYRQAPGKERELVAAITGTDDTNYADSVKGRFTISRDNAKNTVYLQMNSLIPEDTAVYYCAAYSWWNEYDYWGQGTQVTVSS | high polyreactivity |
| QVQLVESGGGLVQAGGSLRLSCAASGRTFDVYAMGWYRQAPGKERELVAVIRGRAGSTYYADSVKGRFTISRDNAKNTVYLQMNSLKPEDTAVYYCAAAKYVRRGLRAWRGDEYDYWGQGTQVTVSS | high polyreactivity |
| QDQHVESGGGLVQAGGSLRLSCAASGRTFYSYTMGWYRPPPGKERELVAAINRSGGRTYYADSVKGRFTISRDNAKNTVYLQRNSLKPEDTAVYYCNALEYYRFDYWGQCTQVTVSS | high polyreactivity |
| QVQHVESGGGLVQAGGSLRLSCAASGGTFLANAMGWYRQAPGKERELVAAISWRGGSTRYADSVKGRFTISRDNAKNTVYLQMNSLKPEDTAVYYCAARYLYFTGFYYWGQGTQVTVSS | high polyreactivity |
| QVQLVESGGGLVQAGGSLRLSCDASGITFQYYAMGWYRQAPGKERELVAAINWRGGTTYYADSVKGRITISRDNAKNTVYLQMNSLIPEDNEVYYCAADYYYQAGFYYWGQGTQVTVSS | low polyreactivity |
| QVHLVESGGGLVQAGGSLRLICAASGSTFLYYAKGWYRQAPGNEMELVAANSQSSASTYYADSVKGRFTISRDNAKTTIYFQIISLKPEDTAVYYCAADYWSVPYIYEYWRQGTQVTVSS | high polyreactivity |
| QVQLVESGGGLVQAGGSLRLICAASGRIFDYYGMGWYRQAPGKETELVATIRRGGSTYYADSVKGRFTISRDNAMNTVYLQMNSLKPEDTAVYYCAAPGYSWYTYRRYDYWGQGTQVTVSS | high polyreactivity |
| QVQLVESGGGLVQAGGSLRLSCAASGSIFTSYAMGWYRQAPGKERELVAAISSSGSTYYADSVKGRFTISRDNAKNTVYLQMNSLKPEDTAVYYCNADSRTAGLNSEYDYWGQGTQVTVSS | low polyreactivity |
| QVQLVESGGGLVQAGGSLRLSCAASGSIFYPYAMGWYRQAPGKEREWVATITLSGGRTYYADSVKGRFTISRDNAKNTVYLQMNSLKPEDTAVYYCATDYAYGAFLYDYWGQGTQVTVSS | low polyreactivity |

From the nanobody polyreactivity screen of Harvey et al. (2022)
